The values that follow come from patent publication US20190177366A1 (published 2019).

Bridge positions count the residues as written; N and C are the ends. Ends that are not written are not given here. Where only a bound is given, the exact number is not on record here.

First the molecules themselves.
B1: Compound 67 (peptide)
peptide: Ac-CRLPWNLKRIGLPC-NH2
modifications: disulfide 1-14
SMILES: CC[C@H](C)[C@@H]1NC(=O)[C@H](CCCNC(=N)N)NC(=O)[C@H](CCCCN)NC(=O)[C@H](CC(C)C)NC(=O)[C@H](CC(N)=O)NC(=O)[C@H](Cc2c[nH]c3ccccc23)NC(=O)[C@@H]2CCCN2C(=O)[C@H](CC(C)C)NC(=O)[C@H](CCCNC(=N)N)NC(=O)[C@@H](NC(C)=O)CSSC[C@@H](C(N)=O)NC(=O)[C@@H]2CCCN2C(=O)[C@H](CC(C)C)NC(=O)CNC1=O
B2: Compound 68 (peptide)
peptide: Ac-CRLPWNLQRIGLAC-NH2
modifications: disulfide 1-14
SMILES: CC[C@H](C)[C@@H]1NC(=O)[C@H](CCCNC(=N)N)NC(=O)[C@H](CCC(N)=O)NC(=O)[C@H](CC(C)C)NC(=O)[C@H](CC(N)=O)NC(=O)[C@H](Cc2c[nH]c3ccccc23)NC(=O)[C@@H]2CCCN2C(=O)[C@H](CC(C)C)NC(=O)[C@H](CCCNC(=N)N)NC(=O)[C@@H](NC(C)=O)CSSC[C@@H](C(N)=O)NC(=O)[C@H](C)NC(=O)[C@H](CC(C)C)NC(=O)CNC1=O

T2 sequence (Q8NBP7 31-152 limits assumed, chain 1 of 2): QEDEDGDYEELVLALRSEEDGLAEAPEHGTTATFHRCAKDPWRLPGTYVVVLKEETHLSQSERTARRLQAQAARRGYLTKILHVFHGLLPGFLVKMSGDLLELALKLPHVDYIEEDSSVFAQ
T2 sequence (Q8NBP7 153-692 limits assumed, chain 2 of 2): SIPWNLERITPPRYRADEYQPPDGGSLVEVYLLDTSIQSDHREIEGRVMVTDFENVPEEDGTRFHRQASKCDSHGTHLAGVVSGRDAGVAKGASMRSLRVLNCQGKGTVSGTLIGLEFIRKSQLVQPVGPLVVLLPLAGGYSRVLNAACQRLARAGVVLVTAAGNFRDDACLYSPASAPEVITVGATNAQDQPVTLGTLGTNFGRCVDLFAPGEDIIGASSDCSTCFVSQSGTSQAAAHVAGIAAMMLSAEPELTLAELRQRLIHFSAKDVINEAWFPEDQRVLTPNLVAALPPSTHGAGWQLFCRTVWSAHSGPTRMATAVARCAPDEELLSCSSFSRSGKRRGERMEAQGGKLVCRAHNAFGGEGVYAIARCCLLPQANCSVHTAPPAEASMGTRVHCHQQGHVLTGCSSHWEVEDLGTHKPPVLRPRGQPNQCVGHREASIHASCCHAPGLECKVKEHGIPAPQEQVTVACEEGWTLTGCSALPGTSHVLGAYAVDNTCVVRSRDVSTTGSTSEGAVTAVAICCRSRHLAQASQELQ
T1 sequence (A8T644 31-152 limits assumed, chain 1 of 2): as the sequence (Q8NBP7 31-152 limits assumed, chain 1 of 2) above
T1 sequence (A8T644 other isoform, or with tags, fused parts or gaps limits assumed, chain 2 of 2): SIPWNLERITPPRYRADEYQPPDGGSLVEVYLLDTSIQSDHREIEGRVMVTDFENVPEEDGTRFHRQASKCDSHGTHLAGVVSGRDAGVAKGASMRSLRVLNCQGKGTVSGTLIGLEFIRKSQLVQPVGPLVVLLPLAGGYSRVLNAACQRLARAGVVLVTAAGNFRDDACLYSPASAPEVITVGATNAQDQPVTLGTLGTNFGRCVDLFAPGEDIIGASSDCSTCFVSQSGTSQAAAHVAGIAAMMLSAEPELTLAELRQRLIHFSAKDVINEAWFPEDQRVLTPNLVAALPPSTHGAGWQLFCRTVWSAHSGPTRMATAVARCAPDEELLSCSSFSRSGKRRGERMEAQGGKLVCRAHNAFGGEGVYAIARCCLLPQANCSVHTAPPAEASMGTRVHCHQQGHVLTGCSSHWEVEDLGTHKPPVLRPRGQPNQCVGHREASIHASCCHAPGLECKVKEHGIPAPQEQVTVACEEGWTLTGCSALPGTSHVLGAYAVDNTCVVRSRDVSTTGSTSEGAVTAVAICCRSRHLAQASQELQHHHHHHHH

One test has as its target T1, His-tagged, full-length PCSK9 (human, UniProt A8T644 31-152; Q8NBP7 153-692).
T1 construct: Target protein of the PCSK9/EGF(A) TR-FRET assay (10 nM); also called His-PCSK9; proprotein convertase subtilisin/kexin type 9
Briefly: TR-FRET competition; competitor EGF(A)-Fc on His-PCSK9. Background: TR-FRET usually uses a lanthanide donor and a delayed reading to cut background.
The IC50 is the midpoint of a concentration-inhibition curve. In turn, Ac-CRLPWNLQRIGLPC-NH2 (disulfide 1-14 (inferred)) [Compound 32] returned an IC50 of over 50 µM.

Molecule B1 returned an IC50 of over 50 µM.

For B2, the IC50 was over 50 µM.

Turning to Ac-SGCFIPWNLQRIGLLC-NH2 (disulfide 3-16 (inferred)) [Compound 29], the 50% inhibitory concentration (IC50) was over 50 µM.

Ac-CFIPWNLQRIGLLC-NH2 (disulfide 1-14 (inferred)) [Compound 31] displayed an IC50 of over 50 µM.

Ac-SGCRLPWNLQRIGLPC-NH2 (disulfide 3-16 (inferred)) [Compound 30]: the concentration for half-maximal inhibition (IC50) was over 50 µM.

The next test concerns the target T2, proprotein convertase subtilisin/kexin type 9 (PCSK9) (human, UniProt Q8NBP7 31-152).
T2 construct: domain: prodomain; Recombinant; tag not written as a part; also called rec.PCSK9; His-PCSK9
Briefly: phage spot ELISA.
SGGSMPWNLERIFALH [SEQ ID NO 390]: the binding result is recorded as “binds”.

As to TAFTSWEEYLDWVGSGQVTSLPQA (phage clone) [SEQ ID NO 363], the binding result is listed as “binds”.

Take SGGSIPWNLERITPPR (phage clone without anchor) [SEQ ID NO 382]: the binding result is given as “binds”.

Turning to SGNALWNHDRLT (phage clone without anchor) [SEQ ID NO 379], the binding result is reported as “binds”.

SGRCLNHLISGNMNSC (not fully specified (bridges); cysteine pairing not given here) [SEQ ID NO 387]: the binding result was “binds”.

Turning to TAFTSWEEYLDWVGSGRCESKGWANTCVSE (phage clone) [SEQ ID NO 362], the binding result is on record as “binds”.

As for SGTPEMPAML (phage clone without anchor) [SEQ ID NO 374], the binding result is reported as “binds”.

Take SGDTRSQLSH (phage clone without anchor) [SEQ ID NO 376]: the binding result is “binds”.

For the molecule TAFTSWEEYLDWVGSGPTSGLTPS (phage clone) [SEQ ID NO 361], the binding result was “binds”.

Take SGGACPWNLERIGLSC [SEQ ID NO 384]: the binding result is reported as “binds”.

As to SGCFIPWNLQRIGLLC [SEQ ID NO 383], the binding result is “binds”.

Regarding SGVCSDHYIGGKEVRC (not fully specified (bridges); cysteine pairing not given here, phage clone without anchor) [SEQ ID NO 378], the binding result is on record as “binds”.

SGAGKLDLSG (phage clone without anchor) [SEQ ID NO 377]: the binding result is “binds”.

Regarding SGMVYVDRGVRVFT (phage clone without anchor) [SEQ ID NO 368], the binding result is “binds”.

For SGEHQFYSYRGVDVYR (phage clone without anchor) [SEQ ID NO 370], the binding result is on record as “binds”.

As to SGSYRGAWSVFGGSTD (phage clone without anchor) [SEQ ID NO 372], the binding result was “binds”.

SGNCWSSLRGICENLG (not fully specified (bridges); cysteine pairing not given here, phage clone without anchor) [SEQ ID NO 367]: the binding result is given as “binds”.

Take SGRNGSGYINRGIEIW (phage clone without anchor) [SEQ ID NO 380]: the binding result is recorded as “binds”.

Consider SGDFIPWNLVRIGLLR [SEQ ID NO 385], for which the binding result is “binds”.

For the molecule SGGCVKYRGSVSCQESKT (not fully specified (bridges); cysteine pairing not given here, phage clone without anchor) [SEQ ID NO 369], the binding result was “binds”.

With SGPRTYLRGLVD (phage clone without anchor) [SEQ ID NO 366], the binding result is “binds”.

For the molecule SGCRLPWNLQRIGLPC [SEQ ID NO 386], the binding result was “binds”.

Regarding SGCSDLWNLARIYPMC (not fully specified (bridges); cysteine pairing not given here) [SEQ ID NO 391], the binding result is reported as “binds”.

As to SGHASKGMVLSG (phage clone without anchor) [SEQ ID NO 381], the binding result is recorded as “binds”.

SGACVKPCIAGNIIR (not fully specified (bridges); cysteine pairing not given here) [SEQ ID NO 388]: the binding result is listed as “binds”.

Turning to SGLAPTVSDS (phage clone without anchor) [SEQ ID NO 375], the binding result is “binds”.

As for SGACLNHFVSGNMIRC (not fully specified (bridges); cysteine pairing not given here, phage clone without anchor) [SEQ ID NO 371], the binding result is listed as “binds”.

In the case of SGCWTYLRGGCSVT (not fully specified (bridges); cysteine pairing not given here, phage clone without anchor) [SEQ ID NO 373], the binding result is listed as “binds”.
